Source: patent US20070292409A1 (University of California, published 2007)

B1: G protein-coupled receptor kinase 2 (GRK2), endogenous protein of 3T3-L1 adipocytes (enzyme, UniProt Q99MK8 1-689, looked up)
chain: MADLEAVLADVSYLMAMEKSKATPAARASKKILLPEPSIRSVMQKYLEDRGEVTFEKIFSQKLGYLLFRDFCLNHLEEAKPLVEFYEEIKKYEKLETEEERVVRSREIFDSYIMKELLACSHPFSKNATEHVQGHLVKKQVPPDLFQPYIEEICQNLRGDVFQKFIESDKFTRFCQWKNVELNIHLTMNDFSVHRIIGRGGFGEVYGCRKADTGKMYAMKCLDKKRIKMKQGETLALNERIMLSLVSTGDCPFIVCMSYAFHTPDKLSFILDLMNGGDLHYHLSQHGVFSEADMRFYAAEIILGLEHMHNRFVVYRDLKPANILLDEHGHVRISDLGLACDFSKKRPHASVGTHGYMAPEVLQKGVAYDSSADWFSLGCMLFKLLRGHSPFRQHKTKDKHEIDRMTLTMAVELPDSFSPELRSLLEGLLQRDVNRRLGCLGRGAQEVKESPFFRSLDWQMVFLQKYPPPLIPPRGEVNAADAFDIGSFDEEDTKGIKLLDSDQELYRNFPLTISERWQQEVAETVFDTINAETDRLEARKKAKNKQLGHEEDYALGKDCIVHGYMSKMGNPFLTQWQRRYFYLFPNRLEWRGEGEAPQSLLTMEEIQSVEETQIKERKCLLLKIRGGKQFVLQCDSDPELVQWKKELRDAYREAQQLVQRVPKMKNKPRSPVVELSKVPLIQRGSANGL
notes: Precipitated from cell lysate with a rabbit polyclonal anti-GRK2 antibody; also called endogenous GRK2

Assays:
[1] = biological target: G protein-q/11 α-subunit (Gαq/11), endogenous protein of 3T3-L1 adipocytes (UniProt P21279)
[2] = biological target: T1, insulin receptor, endogenous protein of 3T3-L1 adipocytes (UniProt P15208 28-1372, limits assumed); experiment: co-immunoprecipitation with anti-GRK2 antibody from 3T3-L1 adipocyte lysates
T1 construct: The mature receptor is made of alpha and beta chains; also called IR
T1 sequence (P15208 28-1372 limits assumed): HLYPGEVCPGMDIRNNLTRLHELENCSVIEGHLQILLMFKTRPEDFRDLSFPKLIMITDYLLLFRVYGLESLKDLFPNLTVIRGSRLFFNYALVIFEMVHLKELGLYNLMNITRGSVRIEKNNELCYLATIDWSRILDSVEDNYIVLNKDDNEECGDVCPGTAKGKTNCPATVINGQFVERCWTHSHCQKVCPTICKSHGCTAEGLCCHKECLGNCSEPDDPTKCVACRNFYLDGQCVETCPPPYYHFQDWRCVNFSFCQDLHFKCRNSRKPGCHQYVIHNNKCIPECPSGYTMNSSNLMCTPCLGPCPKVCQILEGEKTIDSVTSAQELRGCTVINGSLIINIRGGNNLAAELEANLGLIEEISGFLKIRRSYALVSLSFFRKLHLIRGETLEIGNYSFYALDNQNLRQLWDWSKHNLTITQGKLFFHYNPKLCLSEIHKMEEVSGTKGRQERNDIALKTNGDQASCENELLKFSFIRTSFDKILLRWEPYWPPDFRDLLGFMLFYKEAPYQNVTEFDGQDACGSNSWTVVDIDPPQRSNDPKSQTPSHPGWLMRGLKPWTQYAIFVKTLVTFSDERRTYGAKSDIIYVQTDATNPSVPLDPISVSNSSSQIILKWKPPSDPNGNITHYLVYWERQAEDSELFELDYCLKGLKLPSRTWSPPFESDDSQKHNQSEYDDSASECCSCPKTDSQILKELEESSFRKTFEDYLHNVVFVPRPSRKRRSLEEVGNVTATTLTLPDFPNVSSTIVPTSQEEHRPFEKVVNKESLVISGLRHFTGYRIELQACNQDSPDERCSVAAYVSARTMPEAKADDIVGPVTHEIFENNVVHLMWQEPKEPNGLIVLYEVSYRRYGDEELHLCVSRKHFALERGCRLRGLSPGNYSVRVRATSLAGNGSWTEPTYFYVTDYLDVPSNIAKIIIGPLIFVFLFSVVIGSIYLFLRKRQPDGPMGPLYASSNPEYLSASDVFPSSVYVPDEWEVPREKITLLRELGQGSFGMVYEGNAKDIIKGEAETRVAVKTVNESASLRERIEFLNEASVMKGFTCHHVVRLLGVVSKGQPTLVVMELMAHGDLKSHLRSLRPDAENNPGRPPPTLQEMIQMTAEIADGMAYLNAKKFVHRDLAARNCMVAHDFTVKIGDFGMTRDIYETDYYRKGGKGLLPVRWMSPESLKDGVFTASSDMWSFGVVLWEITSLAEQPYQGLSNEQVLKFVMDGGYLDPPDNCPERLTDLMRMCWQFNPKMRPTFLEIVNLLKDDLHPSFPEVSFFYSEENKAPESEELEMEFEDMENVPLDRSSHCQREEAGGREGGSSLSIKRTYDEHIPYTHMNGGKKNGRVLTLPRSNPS

G protein-q/11 α-subunit (Gαq/11), endogenous protein of 3T3-L1 adipocytes, sequence (P21279 whole entry): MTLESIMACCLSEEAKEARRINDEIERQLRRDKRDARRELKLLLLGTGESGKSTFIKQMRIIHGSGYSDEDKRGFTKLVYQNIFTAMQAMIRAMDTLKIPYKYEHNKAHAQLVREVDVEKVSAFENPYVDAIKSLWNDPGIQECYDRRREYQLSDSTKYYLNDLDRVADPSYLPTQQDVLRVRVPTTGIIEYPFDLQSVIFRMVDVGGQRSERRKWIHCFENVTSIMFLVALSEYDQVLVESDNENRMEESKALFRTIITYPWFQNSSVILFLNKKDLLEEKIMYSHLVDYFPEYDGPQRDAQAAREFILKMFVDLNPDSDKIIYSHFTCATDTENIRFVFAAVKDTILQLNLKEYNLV

Row | Molecule | Gαq/11 tyrosine phosphorylation stimulated by ET-1 or insulin (PY20 immunoprecipitation, anti-Gαq/11 blot) [1] | insulin-induced GLUT4 translocation after nuclear microinjection of the expression vector [1] | insulin-induced Gαq/11 tyrosine phosphorylation (PY20 immunoprecipitation, anti-Gαq/11 blot) [1] | binding result [2]
1 | wild type GRK2, overexpressed (adenovirus or plasmid vector) | both WT- and KD-GRK2 overexpression inhibited Gαq/11 tyrosine phosphorylation stimulated by ET-1 or insulin | overexpression of either WT- or KD-GRK2 by nuclear microinjection inhibited insulin-induced GLUT4 translocation | overexpression of either WT- or KD-GRK2 inhibited insulin-induced Gαq/11 tyrosine phosphorylation | 
2 | deletion mutant of GRK2 lacking the RGS domain |  | overexpression of delta-GRK2 had no effect |  | 
3 | kinase deficient (K220R) GRK2, overexpressed (adenovirus or plasmid vector) | both WT- and KD-GRK2 overexpression inhibited Gαq/11 tyrosine phosphorylation stimulated by ET-1 or insulin | overexpression of either WT- or KD-GRK2 by nuclear microinjection inhibited insulin-induced GLUT4 translocation | overexpression of either WT- or KD-GRK2 inhibited insulin-induced Gαq/11 tyrosine phosphorylation | 
4 | B1 |  |  |  | no binding
